Measured values as given in patent US20120171123A1, “USES AND COMPOSITIONS FOR TREATMENT OF RHEUMATOID ARTHRITIS” (priority 2006, published 2012).
Where two headings read alike, the source gives them in different places.

How the values were obtained:
[1] = system: patients with long-standing RA who had inadequate responses to MTX; experiment: Study 1: serious adverse events
Method: Periodic ACR component evaluations were also performed throughout the study. Outcome measures included the following: Total Sharp Score (TSS), including joint erosions (JE) and joint space narrowing (JSN); ACR20, ACR50, and ACR70 response rates; and individual components of ACR responses criteria, including swollen joint count (SJC) and tender joint count (TJC). Efficacy and safety evaluations were conducted at regularly scheduled visits.

[2] = system: patients with active RA; experiment: Low-field MRI follow-up of finger joint inflammation (OMERACT-based scores, ESR, DAS28), Study A subset; assay type: in vivo, human
Method: The method included the following. […] Proximal interphalangeal and metacarpophalangeal joints of the dominant hands of these patients were examined by 0.2-Tesla MRI (C-Scan, Esaote, Italy). Clinical examinations and MRI were performed at baseline and during therapy for a mean period of 86 days (range: 42-126 days). The used sequences were coronal T1-weighted spin-echo; coronal short-tau inversion-recovery gradient-echo; and T1-weighted, 3D gradient-echo before and after administration of Gd-DTPA (0.2 mmol/kg body weight). Erythrocyte sedimentation rate (ESR) and Disease Activity Score 28 (DAS28) were measured at all time points. MRI was evaluated according to an Outcome Measures in Arthritis Clinical Trials or OMERACT-based semiquantitative scoring system. Scores were calculated for erosions (0-5 scale, maximum of 40), synovitis (0-3 scale, maximum of 24), and tenosynovitis (0-3 scale, maximum of 12).

[3] = system: patients with moderate to severe rheumatoid arthritis; experiment: Study C: EULAR response; assay type: in vivo, human; details: 12 weeks
Method: The Canadian Adalimumab Clinical Trial (Study C) was an open-label, multi-center, Phase IIIb study conducted in Canada. […] Efficacy and safety were assessed at baseline, 4, 8, and 12 weeks. Efficacy assessments included tender joint count (TJC 0-28), swollen joint count (SJC 0-28), Disease Activity Score 28 (DAS28), Health Assessment Questionnaire (HAQ), and EULAR response. This was a preliminary analysis of 236 patients. The sample size for each outcome variable is based on the data available at the time of the analysis. The data from this preliminary analysis were compared with the Week 12 data from Study A (N=2008).

[4] = system: patients with long-standing RA; experiment: Study I open-label extension: DAS28 and clinical remission; assay type: in vivo, human; details: for patients in clinical remission (DAS28<2.6) / mean change from baseline in DAS28: last visit
Method: 217 patients who completed the blinded period and participated in the extension trial for a minimum of 6 months were allowed to adjust MTX and/or corticosteroid dosages at the discretion of the principal investigators. Dose tapering was conducted according to standard medical practice with respect to controlling disease activity
(§1) Demographic data, age, gender, disease duration, rheumatoid factor and changes in TJC, SJC, CRP, DAS28, HAQ and ACR responses were analysed. Baseline demographics and disease characteristics as well as efficacy measures at last visit (ACR 20/50/70, DAS28, HAQ) were compared between the groups. All patients, including those who discontinued from the trial, were evaluated
(§2) Patients were eligible to enroll in Study I if they met ACR criteria for diagnosis of RA. […] Efficacy outcomes were assessed at pre-specified intervals as observed data. Treatment time was calculated beginning with the first subcutaneous injection of adalimumab at any dose, excluding time on placebo. Improvements in signs and symptoms of RA were evaluated for ACR20, ACR50, and ACR70 criteria, 28-joint count Disease Activity Score (DAS28) using the CRP-based formula, and Health Assessment Questionnaire (HAQ). Patients with changes in dosage of MTX or corticosteroids were evaluated for at least 6 months; these patients were eligible for the extension study for at least 6 months and were eligible for discretionary dose tapering. Patients were monitored for adverse events (AEs) during the entire length of the study, from signed informed consent through last visit.

[5] = system: MTX-naïve adult patients with active, early RA (<3 years); details: human, in vivo
[6] = system: patients with RA
Text: The ADA pivotal trials were Study I, Study I (both ADA+MTX in MTX partial responders), Study 2 (ADA monotherapy) and Study K (ADA added to standard of care). Patients from the Phase I-III controlled clinical trials of ADA in RA, including the pivotals, were allowed to receive ADA as long-term, open-label therapy in 3 extension studies: 1) Study 18, for ADA monotherapy in the EU, 2) Study 20, for ADA with MTX in NA, and 3) the extension of Study 1, in NA. […] Adverse events are classified as “serious” adverse events based on the following regulatory criteria: fatal, life-threatening, requires inpatient hospitalization, prolongs hospitalization, causes congenital anomaly/birth defect, results in persistent or significant disability/incapacity, an important medical event that jeopardizes the patient and requires medical/surgical intervention to prevent another serious outcome. Serious infections (SI) are defined as “serious adverse events” that are coded under “Infections and Infestations” in the MedDRA coding system. […] 1, 2005 were analyzed in the report described herein. Non-serious infections were not included in this analysis. Serious infections reported during these trials were tabulated and rates were calculated as events per patient-year (E/PY). […] Rates of SI were determined for subsets of patients who, at the time of the SI, had diabetes, or were using concomitant steroids or concomitant MTX.

[7] = system: patients with long-standing RA; experiment: Study I open-label extension: HAQ; assay type: in vivo, human; details: 5 years
Method: as §1, §2

[8] = blinded-controlled and OLE periods
[9] = open-label trials, N = 2504, 7951 PY

## adalimumab: human anti-TNF mAb (HUMIRA, Abbott Laboratories), described in U.S. Pat. No. 6,090,382 as D2E7
[1]; [8]
  Demyelinating disease: 0.2 events/100-PY
  Histoplamosis: 0.2 events/100-PY
  Tuberculosis: 0.2 events/100-PY
[1]; blinded-controlled period
  Demyelinating disease: 0.3 events/100-PY
  Histoplamosis: 0.3 events/100-PY
  Tuberculosis: 0.3 events/100-PY
[1]; in vivo
  Lymphoma: 0.3 events/100-PY
  Urinary tract infections: 0.3 events/100-PY
[2]; after therapy (33.0 before)
  mean ESR: 16.2 mm/hr
[2]; after therapy (baseline 6.1)
  mean DAS28: 3.8
[2]; during therapy (baseline 3)
  median tenosynovitis MRI score (max 12): 1.5
[2]; during therapy (baseline 6.5), not significant
  median erosion MRI score (max 40): 4.5
[2]; during therapy, mean 86 days (baseline 11), n=16
  median synovitis MRI score (max 24): 9
[3]
  Good EULAR response: 18%
  Moderate EULAR response: 79%
[3]; Study C, preliminary analysis
  EULAR response, % good: 18 (121) %
  EULAR response, % moderate: 78 (121) %
[4]; 5 years
  patients with DAS28<2.6: 52%
[4]; mtx and steroid decrease
  patients in clinical remission (DAS28<2.6): 24%
[4]; mtx decrease
  mean change from baseline in DAS28: −2.7
  patients in clinical remission (DAS28<2.6): 7.2%
[4]; mtx increase
  mean change from baseline in DAS28: −1.7
  patients in clinical remission (DAS28<2.6): 6.7%
[4]; mtx no change
  mean change from baseline in DAS28: −2.5
  patients in clinical remission (DAS28<2.6): 15.5%
[4]; mtx+steroid decrease
  mean change from baseline in DAS28: −3.0
[4]; steroid decrease
  mean change from baseline in DAS28: −2.9
  patients in clinical remission (DAS28<2.6): 21.6%
[4]; steroid no change
  mean change from baseline in DAS28: −2.5
  patients in clinical remission (DAS28<2.6): 17.2%
[5]
  withdrawn, reason AE: 11%
[6]; 146 patients with diabetes, 427 PY
  serious infection rate: 0.049 /PY
[6]; 285 of 2504 patients
  patients who experienced a serious infection: 11%
[6]; 2504 patients, 7951 PY, to Mar. 1, 2005
  serious infection rate: 0.045 /PY
[6]; all patients
  rate of serious infections: 4.5 events per 100 PY
[6]; blinded controlled phases of pivotal trials, 1380 patients
  serious infection rate: 0.042 /PY
[6]; human, in vivo
  Pneumonia: 64 events
  cellulitis: 29 events
[6]; open-label trials
  Septic arthritis: 37 events
[6]; [9]
  Patients with serious infections, %: 11.4%
  Serious infection Cellulitis: number of events E: 29
  Serious infection Cellulitis: rate (E/100PY): 0.4 E/100PY
  Serious infection Pneumonia: number of events E: 64
  Serious infection Pneumonia: rate (E/100PY): 0.8 E/100PY
  Serious infection Septic Arthritis: number of events E: 37
  Serious infection Septic Arthritis: rate (E/100PY): 0.5 E/100PY
[6]; with diabetes mellitus
  rate of serious infections: 4.9 events per 100 PY
[6]; without diabetes mellitus
  rate of serious infections: 4.5 events per 100 PY
[7]
  patients with no physical limitations (HAQ=0): 28%
